Measured values from IntAct's records for PubMed 17196169.

B1: Programmed cell death protein 6 (Homo sapiens), O75340 (parent)
chain: MAAYSYRPGPGAGPGPAAGAALPDQSFLWNVFQRVDKDRSGVISDTELQQALSNGTWTPFNPVTVRSIISMFDRENKAGVNFSEFTGVWKYITDWQNVFRTYDRDNSGMIDKNELKQALSGFGYRLSDQFHDILIRKFDRQGRGQIAFDDFIQGCIVLQRLTDIFRRYDTDQDGWIQVSYEQYLSMVFSIV
partner: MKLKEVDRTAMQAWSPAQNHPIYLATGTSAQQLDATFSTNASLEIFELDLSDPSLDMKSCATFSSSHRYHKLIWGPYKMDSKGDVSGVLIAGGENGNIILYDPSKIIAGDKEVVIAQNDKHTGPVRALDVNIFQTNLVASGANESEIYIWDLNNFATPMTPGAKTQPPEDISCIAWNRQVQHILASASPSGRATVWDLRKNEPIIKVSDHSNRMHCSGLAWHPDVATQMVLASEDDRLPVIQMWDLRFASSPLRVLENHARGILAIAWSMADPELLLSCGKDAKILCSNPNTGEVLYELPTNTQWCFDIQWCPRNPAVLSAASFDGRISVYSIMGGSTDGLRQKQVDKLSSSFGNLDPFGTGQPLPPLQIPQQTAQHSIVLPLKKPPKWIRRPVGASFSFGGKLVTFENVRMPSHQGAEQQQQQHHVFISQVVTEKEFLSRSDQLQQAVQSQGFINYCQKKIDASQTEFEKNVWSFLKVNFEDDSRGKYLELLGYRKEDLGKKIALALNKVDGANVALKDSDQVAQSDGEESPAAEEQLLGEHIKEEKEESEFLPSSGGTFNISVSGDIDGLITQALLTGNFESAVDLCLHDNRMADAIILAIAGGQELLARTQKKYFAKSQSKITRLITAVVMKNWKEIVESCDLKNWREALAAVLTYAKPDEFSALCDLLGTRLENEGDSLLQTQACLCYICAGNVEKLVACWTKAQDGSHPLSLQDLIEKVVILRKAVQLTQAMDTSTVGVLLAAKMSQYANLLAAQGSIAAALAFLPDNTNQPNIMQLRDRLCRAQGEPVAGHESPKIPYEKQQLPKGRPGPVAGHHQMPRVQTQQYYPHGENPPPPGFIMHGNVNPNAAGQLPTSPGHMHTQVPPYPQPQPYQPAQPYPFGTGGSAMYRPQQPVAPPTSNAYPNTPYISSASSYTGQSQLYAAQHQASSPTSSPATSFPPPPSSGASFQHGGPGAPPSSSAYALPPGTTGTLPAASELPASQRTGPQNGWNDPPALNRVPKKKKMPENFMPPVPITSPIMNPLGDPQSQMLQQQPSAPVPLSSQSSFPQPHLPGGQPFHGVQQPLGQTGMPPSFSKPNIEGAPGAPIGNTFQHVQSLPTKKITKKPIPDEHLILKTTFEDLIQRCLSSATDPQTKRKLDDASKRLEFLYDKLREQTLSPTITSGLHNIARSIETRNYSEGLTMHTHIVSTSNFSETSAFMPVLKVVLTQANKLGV

Variants of: B1
Details: with sc31a_human SEC31A

Row | Variant | effect of a mutation on the interaction
1 | E47A;E114A | decreasing interaction
